From the nanobody polyreactivity screen of Harvey et al. (2022)

Assay: yeast display, Sf9 membrane polyspecificity reagent, FACS + sequencing; frameworks hold sequencing errors
Summary of the method: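 Synthetic nanobody libraries on Saccharomyces cerevisiae BJ5465 were galactose-induced for 36–48 hours, stained 1 hour at 4 °C with 10% biotinylated, detergent-solubilized Sf9 membrane reagent and enriched on streptavidin microbeads. FACS then separated cells into low and high (top ~1%) gates by anti-HA (expression) and streptavidin (reagent binding) fluorescence. Genes were colony-PCR amplified, MiSeq 2 × 250 sequenced and CDR-length filtered. A clone's polyreactivity label is that of its gate of origin.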

| Sequence | polyreactivity (PSR sort gate) |
| --- | --- |
| QVQLVESGGGLVQAGGSLRLSCAASGSIFDHTKAMGRYRQSPGKERELVAGITRGGSTNYADSVKGRFTISRDNAKNTFYLQMNSLKPEDTAVYYCAKAMPAKFYSEAGYDYWGQGTQVTVSS | low polyreactivity |
| QVQLVESGGGLVQAGGSLRLSCAASGSIFDIYAMGWYRQAPGKERELVAAITNGGSTYADSVKGRFTISRDNAKNTVYLQMNSLKPEDTAVYYCAAYVDQYEYNYWGQGTQVTVSS | low polyreactivity |
| QVQLVESGGGLVQAGGSLRLSCAASGSIFDIYGMGWYRQAPGKESELFASISGGAGSTNYADSVKGRFTISRDNAKNTVYLQMNSLKPEDTAVYYCAAEVYVPDYFQHKFDVEYEYWGQGTQVTVSS | low polyreactivity |
| QVQLVESGGGLVQAGGSLRLSCAASGSIFDKNAMGWYRQAPGKERELVAAITSSGGDTYYADSVKGRFTISRDNAKNTVYLQMYSLKPEDTAVYYCAALGGRYRASTYGYWGQGTQVTVSS | high polyreactivity |
| QVQLVESGGGLVQAGGSLRLSCAASGSIFDLNAMGWYRQAPGKERELVAAISKSGGSTYYADSVKGRFTISRDNAKHTVYLQMNSLKPEDTAVYYCAARYHYPGNWYNYWGQGTQVTVSS | low polyreactivity |
| QVQLVESGGGLVQAGGSLRLSCAASGSIFDLYAMGWYRQAPGKERELVAAITSTGSTYYADSVKGRFTISRDNAKNTVYLQMNSLKPEDTAVYYCAATRGSSEYYYWGQGTQVTVSS | low polyreactivity |
| QVQLVESGGGLVQAGGSLRLSCAASGSIFDLYAMGWYRQAPGKERELVASIRYSGGRTYYADSVKGRFTISRDNAKNTVYLQMNSLKPEDTAVYYCNRDGGYTFIMDYWGQGTQVTVSS | low polyreactivity |
| QVQLVESGGGLVQAGGSLRLSCAASGSIFDLYDMGWYRQAPGKERELVADISFSGGSTFYADSVKGRFTISRDNAKNTVYLQMNSLKPEDTAVYYCAADAALITDYGWADMYYWGQGTQVTVSS | low polyreactivity |
| QVQLVESGGGLVQAGGSLRLSCAASGSIFDNNAMGSYRQAPGKERELVAGINWDDGSTYYADSVKGRFTISRDNAKNTVHLQMISLKPEETAVYYCARDVYVYRWNDFWAVWTWYDYWGQGTQVTVSS | low polyreactivity |
| QVQLVESGGGLVQAGGSLRLSCAASGSIFDNNAMGWYRQAPGKERELVAVITRSGGSTHYADSVKGRFTISRDNAKNTVYLQMNSLKPEDTAVYYCATDGLFYVDGSWTLGYWGQGTQVTVSS | low polyreactivity |
| QVQLVESGGGLVQAGGSLRLSCAASGSIFDNNSMGWYRQAPGKERELVAAIDWSDGSTYYADSVKWRFTISRDNAKNTVYLQMNSLIPEDTSVYYCATVGKQKYDAKYGYWGQGTQVTVSS | high polyreactivity |
| QVQLVESGGGLVQAGGSLRLSCAASGSIFDNYAMGWYRQAPGKEREFDAGISWSGGSTRYADSVKGRFTISRDNAKNTVYLQMNSLKPEDTAVYYCNTGYGLVDFLYGYYYWGQGTQVTVSS | low polyreactivity |
| QVQLVESGGGLVQAGGSLRLSCAASGSIFDPNAMGWYRKALGKERELVAAITYSGVDTYYADSVKGRFTISLDNAKNTVYLQMNILKPEDTAVYFCAGDNGRVGYDYWGQGTQVTVSS | low polyreactivity |
| QVQLVESGGGLVQAGGSLRLSCAASGSIFDPYTMGWYRHEPGKESELVAAINWSGGSTYYADSVKGRFTISRENAKYTVYLQMNSLKPEDTAVYYCNADLTSYYEEDERNDDDYWGQGTQVTVSS | low polyreactivity |
| QVQLVESGGGLVQAGGSLRLSCAASGSIFDRYAMGWYRQAPGKERELVAAISTDGTRTYYADSVKGRFTISRDNAKNTVYLQMNSLKPEDTAVYYGAKYWRSNYYYWGQGTQVTVSS | high polyreactivity |
| QVQLVESGGGLVQAGGSLRLSCAASGSIFDSNAMGWYRQAPGKERELVAAITVSGGDTYYADSVKGRFTISRDNAKNTVYLQMISLKPEDTAVYYCAKQWFTYPYYYWGQGSQVTVSS | high polyreactivity |
| QVQLVESGGGLVQAGGSLRLSCAASGSIFDSYAMGWYRQAPGKERELVADITSDGSTHYADSEKGRFRISRDNAKNTVYLQMNSLKPEDTAVYYCAADYFFYLLGVPVVDVYYWGQGTQVTVSS | low polyreactivity |
| QVQLVESGGGLVQAGGSLRLSCAASGSIFDSYAMGWYRQAPGKERELVASISYRGGSTYYADSVKGRFTISRDNAKNTVYLQMNSLKPEDTAVYYCAATPGYHYRSWRYYYWGQGTQVTVSS | high polyreactivity |
| QVQLVESGGGLVQAGGSLRLSCAASGSIFDVNAMGRYRQAPGKERELVAAISQRGTRTYYADSVKGRFTISRDNAKNTVYLQLNSLKPEDTAVYYCNRGGWRQYDSWGQGTQVTVSS | high polyreactivity |
| QVQLVESGGGLVQAGGSLRLSCAASGSIFDVNAMGWYRPAPGKERELVAAISDSGGSTYYADSVKGRFTISRDTAKNTVYLQMNSLKPEDTAVYYCNADWSWYNYYDFDYWGQGTQVTVSS | low polyreactivity |
| QVQLVESGGGLVQAGGSLRLSCAASGSIFDVNAMGWYRQAPGKERELVAAISDSGGSTYYADSVKGRFTISRDNAKNTVYLQMNSLKPEDTAVYYCNADWSWYNYYDLDYWGQGTQVTVSS | low polyreactivity |
| QVQLVESGGGLVQAGGSLRLSCAASGSIFDVNAMGWYRQAPGKERELVAAISQRGTRTYYADSVKGRFTISRDYAKNTVYLQMNSLTPEDTAVYYCNRGGWRQYDSWGQGTQVTVSS | high polyreactivity |

| Sequence | polyreactivity (PSR sort gate) |
| --- | --- |
| QVQLVESGGGLVQAGGSLRLSCAASGSIFDVNTMGWYRQAPGKERELVASITSSGSTYYADSVKGRFTISRDNAKNTVYLQMNSLKPEDTAVYYCAAASGGTVVGEGDYWGQGSQVTVSS | low polyreactivity |
| QVQLVESGGGLVQAGGSLRLSCAASGSIFDVYAMGWYRPAPGKERELVATISYGDSSTYYADSVKGRFTISRDNAKNTVYFQMNSLKPEDTAVYYCAADYLTAPRWRLLGEMEYWGQGTQVTVSS | low polyreactivity |
| QVQLVESGGGLVQAGGSLRLSCAASGSIFDVYAMGWYRQAPGKERELVARITWSGGSTYYADSVKGRFTISRDNAKNTVYLQMTSLKPEDTAVYYCNVDQVHPTRGLDYWGQGTQVTVSS | low polyreactivity |
| QVQLVESGGGLVQAGGSLRLSCAASGSIFDWYAMGWYRQAPGKEGELVAAISSGDSTYYADSVKGRFTISRDNAKNTVYLQMNSLKPEYTAVYYCAAVTKLSGIRYNYWGQGTQVTVSS | low polyreactivity |
| QVQLVESGGGLVQAGGSLRLSCAASGSIFDYNAKGWYRPAPGKERELVASISGDSGSTYYADSVKGRFTISRDNAKNTVYLQMNSLKPEDTAVYYCAAPYVSWDYRYYYWGQGTQVTVSS | low polyreactivity |
| QVQLVESGGGLVQAGGSLRLSCAASGSIFDYNAMGWYRQAPGKERELVAAISGSGVRTYYADSVKGRFTISRDNAKNTVYLQMNSLKPEDTAVYYCAAAVGRPRREYDYWGQGTQVTVSS | high polyreactivity |
| QVQLVESGGGLVQAGGSLRLSCAASGSIFDYNAMGWYRQAPGKERELVAAISSGGSTNYADSVKGRFTISRDNAKNTVYLQMNSLKPEDTAVYYCNTGLYWLGYWPDDYWGQGTQVTVSS | low polyreactivity |
| QVQLVESGGGLVQAGGSLRLSCAASGSIFDYNAMGWYRQAPGKERELVAAISVNGGNTYYADSVKGRFTISRDNAKNTVYLQMNSLKPEDTAVYYCAADSYGGSKYDYWGQGTQVTVSS | low polyreactivity |
| QVQLVESGGGLVQAGGSLRLSCAASGSIFDYNAMGWYRQAPGKERELVASIRWSGGRTYYADSVKGRFTISRDNAKNTVYLQMNSLKPEDTAVYYCNKGLFSTGNIPYYLIVYLEYNYWGQGTQVTVSS | low polyreactivity |
| QVQLVESGGGLVQAGGSLRLSCAASGSIFDYNAMGWYRQAPGKEREYVAANTWGSGSTYYADSVKGRFTNSRDNAKNTVYLQMNSLKPEDTAVYYCNADDYGGSTGRKGRYNYWGQGTQVTVSS | low polyreactivity |
| QVQLVESGGGLVQAGGSLRLSCAASGSIFDYNGMGWYRQAPGKERELVATITLSTARTYYADSVKGRFTISRDNAKNTVYLQMNSLKPEDTAVYYCATRYPKFRRRNYWGQGTQVTVSS | high polyreactivity |
| QVQLVESGGGLVQAGGSLRLSCAASGSIFDYYAMGWYRQAPGKERELVAAISRSGSRTYYADSVKGRFTISRDNAKNTVYLQMNSLKPEDTAVYYCNAYLTLPYSNHAYYYWGQGTQVTVSS | high polyreactivity |
| QVQLVESGGGLVQAGGSLRLSCAASGSIFDYYAMGWYRQAPGKERELVASINSSGTGTFYADSVKGRFTISRDNAKNTVYLQMNSLKPEDTAVYSCATRQAVGYSSGRGYGYWGQGTQVTVSS | low polyreactivity |
| QVQLVESGGGLVQAGGSLRLSCAASGSIFDYYAMGWYRQAPGKERELVASITWSGGRTSYADSVKGRFTISRDNAKNTVYLQMNSLKPEDSAVYYCAAKLWSYAYQHKRVWYYYWGQGTQVTVSS | high polyreactivity |
| QVQLVESGGGLVQAGGSLRLSCAASGSIFDYYAMGWYRQAPGKERELVATISGGGGTTYYADSVKGRFTISRDNAKNTVYLQMNSLKPEDTAVYYCAAVSLGYNYWGQGTQVTVSS | low polyreactivity |
| QVQLVESGGGLVQAGGSLRLSCAASGSIFDYYGMGWYRQAPGKEGELVATISQGGDSSYYADSVKGRFTISRDNAKNTVYLQMNSLKPEDTAVYYCAALVPIYRWYKLYYWGQGTQVTLSS | low polyreactivity |
| QVQLVESGGGLVQAGGSLRLSCAASGSIFDYYGMGWYRQAPGKERELVARITKRGGSTYYADSVMGRFTISRDNAKNTVYFQMNSLKPEDTAVYYCAAVVAYLFSGRGYRYNYWGQGTQVTLSS | high polyreactivity |
| QVQLVESGGGLVQAGGSLRLSCAASGSIFDYYTMGWYRQAPGKERELVAVIDNSGGSTYYADSVKGRFTISRDNAKNTVYLQMNSLKPEDTAVYYCARRFYNYVSYSNGGATLYDYWGQGTQVTVSS | high polyreactivity |
| QVQLVESGGGLVQAGGSLRLSCAASGSIFEAYAMGWYRQAPGKERELVAAITTAGGSTYYADSVKGRFTISRDNAKNTVYLQMNSLKPEETAVYYCARDYGKYKGYYWGQGTQVTVSS | low polyreactivity |
| QVQLVESGGGLVQAGGSLRLSCAASGSIFEAYAMGWYRQAPGKEREVVAVISWRGGRTYYADSVKGRFTISRDNAKNTVYLQMNSLNPEDTAVYYCNKAYWWHQVGLPRNYEYWGQGTQVTVSS | low polyreactivity |
| QVQLVESGGGLVQAGGSLRLSCAASGSIFEDYAMGWYRQAPGKERELVAAIDWGDGDTYYADSVKGRFTISRDNAKNTVYLQMNSLKPEDTAVYYCAADLVGYSGYYFDEEYYWGQGTQVTVSS | high polyreactivity |
